Assay [1] addresses YFP-tagged α7 nicotinic acetylcholine receptor (human CHRNA7 with YFP fused into the M3-M4 loop) (human) (UniProt P36544).
For assay [2] the target is unchanged. The source holds these as a separate data set.

Residue numbers refer to the chain shown, from its start. Numbers in names are those of the source.

UniProt P36544, sequence (P36544 23-502): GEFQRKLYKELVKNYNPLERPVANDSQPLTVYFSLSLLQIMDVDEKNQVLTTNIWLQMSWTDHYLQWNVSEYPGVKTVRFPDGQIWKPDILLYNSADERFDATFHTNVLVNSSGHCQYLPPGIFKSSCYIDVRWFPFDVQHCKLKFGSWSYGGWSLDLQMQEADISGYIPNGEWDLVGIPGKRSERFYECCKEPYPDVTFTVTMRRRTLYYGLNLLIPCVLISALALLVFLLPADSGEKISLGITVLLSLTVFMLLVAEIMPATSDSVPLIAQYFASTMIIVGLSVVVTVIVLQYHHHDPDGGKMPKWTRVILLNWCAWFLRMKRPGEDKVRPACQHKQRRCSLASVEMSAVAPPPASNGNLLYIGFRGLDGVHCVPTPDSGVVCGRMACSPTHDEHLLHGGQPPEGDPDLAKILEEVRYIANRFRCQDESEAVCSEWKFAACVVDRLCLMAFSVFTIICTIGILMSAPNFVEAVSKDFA

B1: Soluble streptavidin-binding peptide (SBP)-tagged mouse Ly6H (natural protein)
chain: LWCQDCTLANSSHCAPKQCQPTDTVCASVRITDPSSSRKDHSVNKMCASSCDFVKRHFFSDYLMGFINSGILKVDVDCCEKDLCN
Turning to B1, the inhibition of ligand-evoked α7 nAChR current in TARO cells by exogenously added soluble Ly6H-SBP (2.5 μM) in assay [1] turned out to be 14%. Further, in assay [2], the inhibitory ratio: post-stimulation peak amplitude divided by pre-stimulation peak amplitude of choline (30 μM) + PNU120596 (1 μM)-evoked current in TARO cells, 2.5 μM soluble protein applied for 3 min came out at 82.7%.

B2: Soluble SBP-tagged mouse Ly6H R38A mutant (natural protein)
chain: B1 chain with R38A
Take B2: the inhibitory ratio: post-stimulation peak amplitude divided by pre-stimulation peak amplitude of choline (30 μM) + PNU120596 (1 μM)-evoked current in TARO cells, 2.5 μM soluble protein applied for 3 min in assay [2] came to 100%.
